# Test results published in the RNAGym collection of RNA variant scans (doi:10.1073/pnas.2313332121).
# Variants at the floor of the assay were thinned out.
# B1: TPR 5TU (parent)
# chain: GGAUCUUCUCGAUCUAACAAAAAAGACAAAUCUGCCACAAAGCUUGAGAGCAUCUUCGGAUGCAGAGGCGGCAGCCUUCGGUGGCGCGAUAGCGCCAACGUUCUCAACUAUGACACGCAAAACGCGUGCUCCGUUGAAUGGAGUUUAUCAUG
# Variants of: B1
# Assay: polymerase ribozyme fitness, log enrichment relative to wild type (log ratio); higher = more active; in vitro selection for triplet polymerase activity
# How it was run: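 For each subunit of a heterodimeric triplet polymerase ribozyme, a mutant library was built by PCR and transcribed, then taken through a single in vitro selection round in triplicate. Selection involved annealing to a biotinylated primer, the partner subunit and triplets, incubation frozen at −7 °C, gel excision of extended constructs, capture on streptavidin beads and RT-PCR. Genotypes were retained after Illumina sequencing of inputs and outputs only with ≥10 input reads and ≥1 read in each output. Fitness is defined as the logarithm of a genotype's enrichment relative to wild-type enrichment, using inverse-variance-weighted averages across replicates, with the logarithm taken to base 2.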
row,Variant,polymerase ribozyme fitness (log ratio)
1,A12G C72G G74U G83U U146G,≤ -4.2
2,C35U A97U U134A,-3.07
3,U45A G50C C54G G67A C87A A91U A115C,≤ -4.2
4,A17G G86A C93U A97U,0.0217
5,C93G A121C,-3.39
6,A17C A28U G88C U144C,-4.01
7,U9G C14G A24G U55A U139A,≤ -4.2
8,C57A A107U,-3.62
9,A49C A66U C75G C87G C93A A98G A115U U127G G152C,≤ -4.2
10,A12U C36U,-2.21
11,G59A U101A,0.287
12,C8G A16U C36G,≤ -4.2
13,C5A G86U G92U C116G,-0.979
14,A29C A49U A150C,≤ -4.2
15,A52U U53A U101G,-2.73
16,A49U A52G U61G C93U,-3.49
17,A37U G71A C125A,≤ -4.2
18,C38A C95G G124C,-1.34
19,G11U G58C G84U A97U,-2.86
20,A41U G48U C57G C85U A120U,-3.4
21,C10G C96U,-2.78
22,A3G C35U C96A A106C A138C A142G,≤ -4.2
23,C8U G42C C85A,≤ -4.2
24,U6A A115U G141U,-1.01

row,Variant,polymerase ribozyme fitness (log ratio)
1,G68C A97U U102A,≤ -4.2
2,G86U A89U,-2.62
3,A16C A52U,-2.03
4,U31A C93U A121U,-0.469
5,C69U U78G C96G U134A U135C,≤ -4.2
6,C51U G70C C93G,≤ -4.2
7,U53A A60U U77C G80C A91G A142C,≤ -4.2
8,C36A G143U,-4.12
9,U6C C10G A28U C57U C63U U77A C85U G86U U144C,≤ -4.2
10,U15A A20U A23G A37G G68C C96U C129G U144A,≤ -4.2
11,G59C A115C,-0.396
12,G84A U109G C114G U135G,≤ -4.2
13,U13A G58U C96A A120U U145C,-1.29
14,C87A U145A,-4.17
15,A19U A40G A110C,≤ -4.2
16,A142U U146G,-1.2
17,A49G A119C,-0.604
18,C85G A107G,≤ -4.2
19,A120G,0.00404
20,C85G U104A,-2.4
21,A52C G92U C116G,-1.7
22,A23G A41G U55A U90C C96G C99A,≤ -4.2
23,A40C C87G G94U C95G C118G,≤ -4.2
24,A39U C43A U44A U56G G59C G94A C103G U144A,≤ -4.2

row,Variant,polymerase ribozyme fitness (log ratio)
1,U82C U90G,≤ -4.2
2,G42U G92C,-3.85
3,A17U A49G G86U,-1.95
4,U53A G70C C149G,≤ -4.2
5,A12G C57A G58A G81A C85U A91G A119G,-3.03
6,A21U G34U C54G U61G C108G G140A U145C,-4.13
7,G50C G84U,-3.79
8,U15C C99G,-0.377
9,U7C C35U C87G U104G,-4.04
10,A16C A22U A97U C114A U135G,≤ -4.2
11,U45A C54A,≤ -4.2
12,A28C A30U,-3.88
13,A24U G84C C114U G140U,≤ -4.2
14,C54G C87U G143C,-3.99
15,C87G G94C A98G,-3.08
16,A106C C125G,-1.27
17,A60G U61G C93U,-2.26
18,C8G U78A,≤ -4.2
19,A22U C93U,-1.47
20,C57U G58C G86A U102A C116A,-2.47
21,G48A C54U G84A G92U C99G U109G G133C,≤ -4.2
22,A113U U134C,-2.77
23,A30C U44A C51U U77C C131G,≤ -4.2
24,A40G U56A G84A A91C C95G G100U,≤ -4.2

row,Variant,polymerase ribozyme fitness (log ratio)
1,A17G C69A U82G G86C G117U G140C U145A,≤ -4.2
2,U56A U61G U134G,-3.93
3,C87G C132U,≤ -4.2
4,A23G U90G C93A A107U,≤ -4.2
5,G25U C36U C54G,-4.13
6,C57U U145G,-0.309
7,C76G C85U U139C,≤ -4.2
8,G42A,-3.47
9,U45A A106C,-0.488
10,G74A G92C C149A,≤ -4.2
11,C38U C76U U77G G92A C118A C129U,≤ -4.2
12,G25C G48U U55A C85U A147C,-3.98
13,G83U C116U A122C,-2.43
14,A17C G25C A30G U45A A49C G124U,-4.16
15,A24U C85G,-2.77
16,C27A C43A A66U C93G G140U G141A U146G,≤ -4.2
17,C36A U55A,-3.27
18,U53A G86U,-2.14
19,A23U A106G A138U,≤ -4.2
20,C85U G141A,-0.0572
21,G50A A106C,-2.72
22,C10U G83A,-3.44
23,A21U U101C,0.366
24,U31G G50C G58U G88U,≤ -4.2

row,Variant,polymerase ribozyme fitness (log ratio)
1,A21G G59C C85U U102C C116G U134A,-4.09
2,C69A C85U,-1.65
3,G46A C93U C129G,≤ -4.2
4,A29C A41G G46U A49G C75U G83A A121G G152U,≤ -4.2
5,U33G G42A A49G C95G,≤ -4.2
6,G50A G92C,-3.26
7,G62C G67C U134C A147G,≤ -4.2
8,A41C U44G G46C G84C C123G G128A U145A,≤ -4.2
9,U56G G94A U139G,-1.18
10,G11U A21U A37G A52C C85U,-4.18
11,C85G A107U G126U C132U,≤ -4.2
12,A24C C87U,-3.57
13,A17G C63U G88C,≤ -4.2
14,A16U U56A A60U G141U,-2.12
15,G50U G80A A91G C99G,≤ -4.2
16,U53A G58A C76U C103G A150U,≤ -4.2
17,A19G C38A U102C C108U,≤ -4.2
18,C72G C96U,-4.02
19,G48U C85A U144C,-2.1
20,U55G A73G,-0.595
21,C51A C76A G86A,≤ -4.2
22,C36A,-2.97
23,C51A A98U C125G,-0.926
24,U6G U53A G80U,≤ -4.2

row,Variant,polymerase ribozyme fitness (log ratio)
1,A40U U145A,-0.163
2,A40U U82G G84U C93A C99A U109G G136U,≤ -4.2
3,A40C A52U U111C A119U U139G U151G,≤ -4.2
4,C35A A39G,≤ -4.2
5,A23U U56A C93A U101G U127A A137U U139A C149A,≤ -4.2
6,C27U A47U C96A C103A G117A,≤ -4.2
7,G11C A22C G50U U56A C96A G141A,-3.94
8,C54A C116U G143U,-3.09
9,U61A C103U,-1.31
10,A21G U56A G67C U77G G88A C99A U109G,≤ -4.2
11,C54A U56A G67U C85A G88A U101G G141C,≤ -4.2
12,U31G A60C,-1.23
13,C18U C36U C75A C79U C118A C131U,≤ -4.2
14,C38U G86A A89C C95G G112C,≤ -4.2
15,G65A C131U,-0.0454
16,U7A G11U G50A A64G G68A C72U C87U A115U A122G C149A U151A,≤ -4.2
17,C95A G100U A106G A110G A142U,-4.01
18,C43G A47C U104G,≤ -4.2
19,U13G G59A,-1.2
20,G46A C125A U134C,-0.78
21,A22G U55A U61A G94U,-3.37
22,G25U G50U A73G U101G,-2.68
23,A41C U56A G83U U127C G152A,-4.07
24,C36U C54G U55C C75U C93U U146A,≤ -4.2

row,Variant,polymerase ribozyme fitness (log ratio)
1,A22U A37C C96U A142C,-1.63
2,A52C C96U,-1.77
3,G42A G71U G126A A138C,≤ -4.2
4,A23U A28G C87U U145A,≤ -4.2
5,A22U G48C G50U A120U U145C,-2.9
6,C18G A26C A107G,≤ -4.2
7,A17C C51A C93U A115U,-2.93
8,C57G C85A,-3.21
9,A49G G92C,-2.39
10,A23C C85A G88A A120U U146G,≤ -4.2
11,U15G G70A C87U U90C C93U,≤ -4.2
12,A24U U53A,-0.894
13,U7G C87U,-3.04
14,C38U U101A C103G A121U U144G,-3.85
15,C99G C108U,-4.14
16,A28U A110C,≤ -4.2
17,G50C A52G G62A G74U G86C C116U,≤ -4.2
18,G81A C95A A147C,0.16
19,U148G A150G,-3.79
20,A19U A21U A30U A40C U55A C96U G126A C132U G143U,≤ -4.2
21,U56A C131U,0.529
22,G50A G94U A121C,-2.21
23,C51U C93G,-3.69
